The values that follow come from paper PMC8755542, “HELQ is a dual-function DSB repair enzyme modulated by RPA and RAD51” (Nature, 2021).

Substitutions are numbered along the chain they refer to. Names and notes keep the numbering of the source.

The target in data set [1] is T1, HELQ(K365M) (human, UniProt Q8TDG4 1-1101, K365M).
T1 sequence: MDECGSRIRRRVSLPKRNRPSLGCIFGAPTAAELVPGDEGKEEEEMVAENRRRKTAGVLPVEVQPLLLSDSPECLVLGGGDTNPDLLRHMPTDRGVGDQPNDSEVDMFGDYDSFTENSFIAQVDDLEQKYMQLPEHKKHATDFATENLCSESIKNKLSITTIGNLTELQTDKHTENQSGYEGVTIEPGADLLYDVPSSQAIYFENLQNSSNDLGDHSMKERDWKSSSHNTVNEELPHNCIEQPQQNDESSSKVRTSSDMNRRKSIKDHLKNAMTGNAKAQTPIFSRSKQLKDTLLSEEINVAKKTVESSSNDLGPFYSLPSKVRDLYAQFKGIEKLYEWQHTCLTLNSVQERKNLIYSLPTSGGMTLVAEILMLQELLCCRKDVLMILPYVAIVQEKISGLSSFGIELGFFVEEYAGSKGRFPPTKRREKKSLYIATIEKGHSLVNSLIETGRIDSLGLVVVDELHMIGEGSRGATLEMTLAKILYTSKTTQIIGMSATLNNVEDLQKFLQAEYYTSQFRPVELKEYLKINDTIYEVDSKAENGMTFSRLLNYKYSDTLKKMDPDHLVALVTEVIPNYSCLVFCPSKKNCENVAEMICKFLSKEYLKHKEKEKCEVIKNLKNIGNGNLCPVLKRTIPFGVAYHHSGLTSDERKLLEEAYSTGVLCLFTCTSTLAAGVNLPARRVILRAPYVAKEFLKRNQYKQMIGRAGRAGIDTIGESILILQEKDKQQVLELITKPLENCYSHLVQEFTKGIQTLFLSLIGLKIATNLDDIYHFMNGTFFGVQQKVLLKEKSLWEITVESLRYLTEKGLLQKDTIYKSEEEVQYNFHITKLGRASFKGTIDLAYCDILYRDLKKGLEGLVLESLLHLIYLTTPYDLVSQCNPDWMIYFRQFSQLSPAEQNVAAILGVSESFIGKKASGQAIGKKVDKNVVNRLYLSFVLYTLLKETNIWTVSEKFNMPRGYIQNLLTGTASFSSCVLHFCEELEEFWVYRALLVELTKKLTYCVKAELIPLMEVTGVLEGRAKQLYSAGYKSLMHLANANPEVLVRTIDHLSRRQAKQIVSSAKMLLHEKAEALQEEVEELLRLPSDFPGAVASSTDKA
The experiment in a line: EMSA; 2 mM ATP, 2 mM Mg2+; EMSA: 25 mM Tris-HCl pH 8.0, 2 mM ATP, 2 mM MgCl2, 1 mM DTT, 50 mM NaCl, 0.1 mg/ml BSA, 25 nM DNA, 10 min 37 C (20 min for RAD51 +/- HELQ); single-molecule at room temperature in similar buffer. As to conditions: protein: recombinant, tags: C-terminal Flag, N-terminal MBP removed with PreScission. (A gel shift assay detects complexes by their altered migration in electrophoresis.)

The target of data set [2] is T2, HELQ;RPA-eGFP (human;human, UniProt Q8TDG4;P27694;P15927;P35244 1-1101;1-616;1-270;1-121, |). Put plainly: single-molecule oligo capture; capture on RPA-eGFP-coated lambda ssDNA; EMSA: 25 mM Tris-HCl pH 8.0, 2 mM ATP, 2 mM MgCl2, 1 mM DTT, 50 mM NaCl, 0.1 mg/ml BSA, 25 nM DNA, 10 min 37 C (20 min for RAD51 +/- HELQ); single-molecule at room temperature in similar buffer. As to conditions: protein: recombinant;recombinant; tags: C-terminal Flag; N-terminal MBP removed with PreScission;eGFP; copies: 1;1;1;1; label: Cy3 (5' in oligo list, 3' in capture assay); single strand.

The target of the next data set is HELQ;RPA-mRFP1 (human;human, UniProt Q8TDG4;P27694;P15927;P35244 1-1101;1-616;1-270;1-121, |). The experiment in a line: pull-down; via biotin-dT43 on streptavidin beads; 82 nM RPA, fusion not stated; EMSA: 25 mM Tris-HCl pH 8.0, 2 mM ATP, 2 mM MgCl2, 1 mM DTT, 50 mM NaCl, 0.1 mg/ml BSA, 25 nM DNA, 10 min 37 C (20 min for RAD51 +/- HELQ); single-molecule at room temperature in similar buffer. To be noted: protein: recombinant;recombinant; tags: C-terminal Flag; N-terminal MBP removed with PreScission;mRFP1; copies: 1;1;1;1; label: Cy3 (5' in oligo list, 3' in capture assay); single strand.

A further data set has as its target HELQ(K365M);RPA-mRFP1 (human;human, UniProt Q8TDG4;P27694;P15927;P35244 1-1101;1-616;1-270;1-121, K365M|). The experiment in a line: pull-down; via biotin-dT43 on streptavidin beads; RPA fusion not stated; EMSA: 25 mM Tris-HCl pH 8.0, 2 mM ATP, 2 mM MgCl2, 1 mM DTT, 50 mM NaCl, 0.1 mg/ml BSA, 25 nM DNA, 10 min 37 C (20 min for RAD51 +/- HELQ); single-molecule at room temperature in similar buffer. As to conditions: protein: recombinant;recombinant; tags: C-terminal Flag; N-terminal MBP removed with PreScission;mRFP1; copies: 1;1;1;1; label: Cy3 (5' in oligo list, 3' in capture assay); single strand.

For data set [3], the target named is T3, HELQ(K365M) (human, UniProt Q8TDG4 1-1101, K365M).
T3 construct: human HELQ helicase with the helicase-dead mutation K365M, made from pFB-MBP-HELQ-Flag by site-directed mutagenesis; also called helicase-dead HELQ; HELQ KM; source: Sf9 insect cells, purified (same procedure as wild-type HELQ); not shown: MBP, N-terminal, cleaved
T3 sequence (looked up): T1 sequence
The experiment in a line: single-molecule imaging (optical tweezers with confocal microscopy, C-Trap); gapped λ-DNA held between beads at constant force of 50 pN; 25 nM Alx–RAD51 with or without 50 nM HELQ or HELQ(K365M) in 1× HELQ buffer (25 mM Tris-HCl pH 8.0, 2 mM MgCl2, 50 mM NaCl), 2 mM ATP, 0.2 mg/ml BSA, 1 mM DTT; room temperature; kymographs of Alx–RAD51. As to conditions: both partners purified.

The target in data set [4] is T4, HELQ (wild type, purified recombinant human HELQ) (human, UniProt Q8TDG4 1-1101).
T4 construct: human HELQ helicase; custom HELQ ORF (GeneArt); Eluted from Flag resin with 3xFlag peptide; no removal of the Flag tag is described; also called HELQ WT; WT HELQ; source: Sf9 insect cells, purified (amylose, PreScission cleavage of MBP, anti-Flag resin); not shown: MBP, N-terminal, cleaved
T4 sequence (looked up): T1 sequence with M365K
The description is as above. To be noted: both partners purified.

For data set [5], the target named is T2, HELQ;RPA-eGFP. The experiment in a line: single-molecule oligo capture; capture on RPA-eGFP-coated lambda ssDNA; dwell time 134 s; EMSA: 25 mM Tris-HCl pH 8.0, 2 mM ATP, 2 mM MgCl2, 1 mM DTT, 50 mM NaCl, 0.1 mg/ml BSA, 25 nM DNA, 10 min 37 C (20 min for RAD51 +/- HELQ); single-molecule at room temperature in similar buffer. As to conditions: protein: recombinant;recombinant; tags: C-terminal Flag; N-terminal MBP removed with PreScission;eGFP; copies: 1;1;1;1; label: 5' Cy3; single strand.

A further data set has as its target HELQ(K365M);RPA-eGFP (human;human, UniProt Q8TDG4;P27694;P15927;P35244 1-1101;1-616;1-270;1-121, K365M|). The experiment in a line: single-molecule oligo capture; capture on RPA-eGFP-coated lambda ssDNA; dwell time 179 s; EMSA: 25 mM Tris-HCl pH 8.0, 2 mM ATP, 2 mM MgCl2, 1 mM DTT, 50 mM NaCl, 0.1 mg/ml BSA, 25 nM DNA, 10 min 37 C (20 min for RAD51 +/- HELQ); single-molecule at room temperature in similar buffer. To be noted: protein: recombinant;recombinant; tags: C-terminal Flag; N-terminal MBP removed with PreScission;eGFP; copies: 1;1;1;1; label: 5' Cy3; single strand.

T2 sequence (P27694 whole entry, chain 2 of 3): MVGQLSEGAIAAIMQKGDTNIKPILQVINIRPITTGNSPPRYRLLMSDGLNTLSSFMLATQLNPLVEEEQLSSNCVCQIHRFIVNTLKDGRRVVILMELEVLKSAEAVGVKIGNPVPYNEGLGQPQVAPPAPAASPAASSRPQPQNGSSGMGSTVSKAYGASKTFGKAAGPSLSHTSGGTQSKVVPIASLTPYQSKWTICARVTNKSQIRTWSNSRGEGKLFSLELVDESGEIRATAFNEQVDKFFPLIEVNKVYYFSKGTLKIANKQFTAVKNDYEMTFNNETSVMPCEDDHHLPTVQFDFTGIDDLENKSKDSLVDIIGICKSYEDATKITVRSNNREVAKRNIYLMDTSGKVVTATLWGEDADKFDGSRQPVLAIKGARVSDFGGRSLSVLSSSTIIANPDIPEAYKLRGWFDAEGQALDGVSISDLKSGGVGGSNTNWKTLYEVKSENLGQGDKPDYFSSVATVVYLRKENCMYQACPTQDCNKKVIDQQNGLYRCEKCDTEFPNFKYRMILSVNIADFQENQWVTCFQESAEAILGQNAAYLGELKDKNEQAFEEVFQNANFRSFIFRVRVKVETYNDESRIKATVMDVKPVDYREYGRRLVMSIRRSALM
T2 sequence (P15927 whole entry, chain 3 of 3): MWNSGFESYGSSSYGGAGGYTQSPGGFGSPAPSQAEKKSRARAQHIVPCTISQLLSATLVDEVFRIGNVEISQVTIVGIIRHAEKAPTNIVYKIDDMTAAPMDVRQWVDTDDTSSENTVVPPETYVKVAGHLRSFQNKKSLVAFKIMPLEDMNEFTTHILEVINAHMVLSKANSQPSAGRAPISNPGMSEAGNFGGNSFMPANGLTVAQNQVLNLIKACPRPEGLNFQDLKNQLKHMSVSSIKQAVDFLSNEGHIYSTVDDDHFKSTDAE
T2 sequence (P35244 whole entry, chain 4 of 3): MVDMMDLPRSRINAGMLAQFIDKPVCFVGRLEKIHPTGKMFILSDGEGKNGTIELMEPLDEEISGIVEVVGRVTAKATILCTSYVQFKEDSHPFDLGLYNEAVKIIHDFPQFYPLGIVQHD
Sequence of HELQ(K365M);RPA-eGFP (P27694 whole entry, chain 2 of 3): as the sequence (P27694 whole entry, chain 2 of 3) above
Sequence of HELQ(K365M);RPA-eGFP (P15927 whole entry, chain 3 of 3): as the sequence (P15927 whole entry, chain 3 of 3) above
Sequence of HELQ(K365M);RPA-eGFP (P35244 whole entry, chain 4 of 3): as the sequence (P35244 whole entry, chain 4 of 3) above
Sequence of HELQ(K365M);RPA-mRFP1 (P27694 whole entry, chain 2 of 3, the tested form may be a part): as the sequence (P27694 whole entry, chain 2 of 3) above
Sequence of HELQ(K365M);RPA-mRFP1 (P15927 whole entry, chain 3 of 3, the tested form may be a part): as the sequence (P15927 whole entry, chain 3 of 3) above
Sequence of HELQ(K365M);RPA-mRFP1 (P35244 whole entry, chain 4 of 3, the tested form may be a part): as the sequence (P35244 whole entry, chain 4 of 3) above
Sequence of HELQ;RPA-mRFP1 (P27694 whole entry, chain 2 of 3, the tested form may be a part): as the sequence (P27694 whole entry, chain 2 of 3) above
Sequence of HELQ;RPA-mRFP1 (P15927 whole entry, chain 3 of 3, the tested form may be a part): as the sequence (P15927 whole entry, chain 3 of 3) above
Sequence of HELQ;RPA-mRFP1 (P35244 whole entry, chain 4 of 3, the tested form may be a part): as the sequence (P35244 whole entry, chain 4 of 3) above

B1: ssDNA (oligo 1) (ssDNA)
DNA: AGCTACCATGCCTGCACGAATTAAGCAATTCGTAATCATGGTCATAGCT
Consider B1, for which the binding result in the data set with HELQ(K365M) [1] (label: 5' FITC, single strand 49 nt) is reported as “binds”.

B2: dsDNA (oligo 1 + oligo 2) (dsDNA)
DNA 1: B1 DNA
DNA 2: AGCTATGACCATGATTACGAATTGCTTAATTCGTGCAGGCATGGTAGCT
Regarding B2, the binding result with HELQ(K365M) [1] (label: 5' FITC on strand 1, blunt 49 bp) is on record as “binds”.

B3: dT79 (ssDNA)
DNA: TTTTTTTTTTTTTTTTTTTTTTTTTTTTTTTTTTTTTTTTTTTTTTTTTTTTTTTTTTTTTTTTTTTTTTTTTTTTTTT
Turning to B3, the binding result with HELQ;RPA-eGFP [2], with HELQ;RPA-mRFP1 and with HELQ(K365M);RPA-mRFP1 was “binds” throughout.

B4: Alx–RAD51 (RAD51(C319S) labelled with Alexa Fluor 488 C5 maleimide) (natural protein, human, UniProt Q06609 1-339, looked up)
chain: MAMQMQLEANADTSVEEESFGPQPISRLEQCGINANDVKKLEEAGFHTVEAVAYAPKKELINIKGISEAKADKILAEAAKLVPMGFTTATEFHQRRSEIIQITTGSKELDKLLQGGIETGSITEMFGEFRTGKTQICHTLAVTCQLPIDRGGGEGKAMYIDTEGTFRPERLLAVAERYGLSGSDVLDNVAYARAFNTDHQTQLLYQASAMMVESRYALLIVDSATALYRTDYSGRGELSARQMHLARFLRMLLRLADEFGVAVVITNQVVAQVDGAAMFAADPKKPIGGNIIAHASTTRLYLRKGRGETRICKIYDSPSLPEAEAMFAINADGVGDAKD
modifications: Alexa Fluor 488 C5 maleimide label (1:1 labelling stoichiometry; labelled residue not given)
notes: human RAD51 recombinase with the mutation C319S; also called RAD51(A488); source: E. coli, purified as WT RAD51, then labelled and separated from free dye (Zeba column)
With B4, the binding result (with HELQ(K365M) [3]; in data set [4]) was “binds” each time.

B5: lambda4 80-mer (ssDNA)
DNA: CCTGAACGACCAGGCGTCTTCGTTCATCTATCGGATCGCCACACTCACAACAATGAGTGGCAGATATAGCCTGGTGGTTC
In the case of B5, the binding result with HELQ;RPA-eGFP [5] and with HELQ(K365M);RPA-eGFP was “binds” in each case.
